These results are taken from patent publication US20060062793A1, “Modified antibodies to prostate-specific membrane antigen and uses thereof” (priority 2004, published 2006).

The subject of series [1] is LNCap membrane preparation. Put plainly: ELISA for binding of J415 deimmunized antibodies to LNCap membrane preparation. Set-up: species or system human. Here is the method:
The J415 deimmunized antibodies (including various combinations of the deimmunized light chain and heavy chain subunits) were tested in an ELISA for binding to LNCap membrane preparation following the protocol as detailed above. ELISA plates were coated with LNCap membrane preparation and blocked with 5% BSA in phosphate buffered saline. Doubling dilutions of the J415 chimeric antibody (murine variable heavy and light chain regions fused to human constant heavy and light chain regions, respectively) and the deimmunized antibodies were applied. Detection was with horseradish peroxidase conjugated goat anti-human IgG and donkey anti-mouse for chimeric and mouse antibodies respectively. Color was developed with o-phenylene diamine substrate.

Series [2] has as its system PSMA-positive human LNCaP tumors. Put plainly: Biodistribution of 111In labeled MAbs in nude mice bearing LNCaP tumors. The format is in vivo, mouse. Here is the method:
Prior to use, the cells were trypsinized, counted and suspended in Matrigel (Collaborative Biomedical Products, Bedford, Mass.). Nu/Nu Balb C mice 8-10 weeks of age were inoculated, in the right and left flanks, with a suspension of 5×10^6 LNCaP cells in Matrigel (BD Biosciences, Bedford Mass.). After a period of 14-18 days, tumors (100-300 mg) had developed. The PSMA-negative DU145 and PC3 cells were implanted in nude mice in an identical manner.
The PSMA-positive and PSMA-negative tumor bearing mice were injected, via the tail vein, with 80 KBq of the iodinated MAb (400 MBq/mg) in 200 μL of PBS (pH 7.4, 0.2% BSA). Groups of animals (3-8/group) were sacrificed after 2, 4 or 6 days. The major organs and tumors were recovered. The tissue samples were weighed and counted, with appropriate standards in an automatic NaI(Tl) counter. These measured relative activity data (cpm) were background corrected and expressed as a percentage of the injected dose per gram (% ID/g). […] J415, J591 and 7E11 were labeled with ^111In (100 MBq/mg). 80 KBq of the ^111In labeled MAbs were injected in groups of animals. The % ID/g in various organs and tumor tissues was determined at 2-6 days post injection in a similar way as described for ^131I labeled MAbs.

Another series concerns LNCaP tumor sections. The format is in vivo, mouse. The settings on record: 131I-labeled, 4 to 6 days after intravenous injection.

Description for LNCaP tumor sections: For several animals (n=20), harvested tumor samples were immediately cooled in liquid nitrogen and frozen in embedding medium (O.C.T. 4583, Sakura Finetec, Torrance Calif.). Twenty micron sections were cut and the tumor sections were either fixed with acetone and placed in direct contact with a sheet of photographic film (Biomax, Kodak, Rochester, N.Y.) or stained with hematoxin/eosin prior to exposure of the film. Tumors from control animals were collected and cut into 10 μm sections. […] Non-specific binding was determined in the presence of 100 nM J591 MAb. These sections were then washed 3 times with PBS (containing 0.2% BSA) and once with Tris buffer prior to being fixed with acetone and then exposed to photographic film.

B1: deJ415: deimmunized J415, heavy chain J415DIVH4 combined with light chain J415DIVK5; ATCC PTA-4174 (antibody, V domains shown)
VH: EVKLEESGGGLVQPGGSMKISCVASGFTFSNYWMNWVRQSPEKGLEWVAEIRSQSNNFATHYAESVKGRVIISRDDSKSSVYLQMNSLRAEDTAVYYCTRRWNNFWGQGTTVTVSS
VL: NIVMTQFPKSMSASAGERMTLTCKASENVGTYVSWYQQKPTQSPKMLIYGASNRFTGVPDRFSGSGSGTDFILTISSVQAEDLVDYYCGQSYTFPYTFGGGTKLEMK
B1: the “binding to LNCap cells as compared to the chimeric antibody” value in series [1] was “equivalent binding”.

B2: J415: murine monoclonal antibody to human PSMA; hybridoma ATCC HB-12109 (antibody, V domains shown)
VH: EVKLEESGGGLVQPGGSMKLSCVASGFTFSNYWMNWVRQSPEKGLEWVAEIRSQSNNFATHYAESVKGRVIISRDDSKSSVYLQMNNLRAEDTGIYYCTRRWNNFWGQGTTLTVSS
VL: NIVMTQFPKSMSISVGERVTLTCKASENVGTYVSWYQQKPEQSPKMLIYGASNRFTGVPDRFTGSGSATDFILTISSVQTEDLVDYYCGQSYTFPYTFGGGTKLEMK
With B2, in series [2], the “kinetics of blood clearance” value was “faster compared to 7E11”; the “tumor uptake over time” value was “gradually increased with time and is quite similar to that of 7E11”; the tumor/blood ratios result is “significantly higher compared to that of 7E11”. The intra-tumoral distribution pattern result with LNCaP tumor sections is listed as “distinct preferential accumulation in areas of viable tumor”.
